The data set concerns the molecule itself. The experiment in a line: SEC; size exclusion chromatography of GOx as comparison to AfGDH; elution volume corresponding to the dimer; conditions not shown (Supplementary Figure S4). (In general: In gel filtration, larger molecules generally elute earlier.)

B1: glucose oxidase (enzyme, UniProt P13006 17-605, looked up)
chain: LPHYIRSNGIEASLLTDPKDVSGRTVDYIIAGGGLTGLTTAARLTENPNISVLVIESGSYESDRGPIIEDLNAYGDIFGSSVDHAYETVELATNNQTALIRSGNGLGGSTLVNGGTWTRPHKAQVDSWETVFGNEGWNWDNVAAYSLQAERARAPNAKQIAAGHYFNASCHGVNGTVHAGPRDTGDDYSPIVKALMSAVEDRGVPTKKDFGCGDPHGVSMFPNTLHEDQVRSDAAREWLLPNYQRPNLQVLTGQYVGKVLLSQNGTTPRAVGVEFGTHKGNTHNVYAKHEVLLAAGSAVSPTILEYSGIGMKSILEPLGIDTVVDLPVGLNLQDQTTATVRSRITSAGAGQGQAAWFATFNETFGDYSEKAHELLNTKLEQWAEEAVARGGFHNTTALLIQYENYRDWIVNHNVAYSELFLDTAGVASFDVWDLLPFTRGYVHILDKDPYLHHFAYDPQYFLNELDLLGQAAATQLARNISNSGAMQTYFAGETIPGDNLAYDADLSAWTEYIPYHFRPNYHGVGTCSMMPKEMGGVVDNAARVYGVQGLRVIDGSIPPTQMSSHVMTVFYAMALKISDAILEDYASMQ
notes: glucose oxidase (GOx) used as the comparison in size exclusion chromatography; probably the glycosylated enzyme; also called GOx
One may read the stoichiometry N as the number of molecules, sites or subunits per partner or assembly. Take B1: the “stoichiometry N” value was found to be 2.

The values above are taken from PMC4642536, “Structural analysis of fungus-derived FAD glucose dehydrogenase” (Scientific Reports, 2015).
